Experimental data published in publication PMC11108154.
Where “and” joins values, the source holds several entries; their conditions need not be identical. Equal values may be shown once.

Experiments:
[1] = target: AMP-glucagon (generic synthetic glucagon for injection, Amphastar Pharmaceuticals) (UniProt P01275); assay: SEC; SEC-HPLC of expired lots (end of shelf life); Phenomenex Yarra 3 um SEC-2000, isocratic 55% 0.1% TFA / 45% acetonitrile, 1.000 mL/min, ambient temperature, UV 214 nm; reconstituted with the included diluent and tested immediately; monomer and dimer told by a calibration curve
[2] = target: ELI-glucagon (Eli Lilly's Glucagon, recombinant, reference listed drug) (UniProt P01275); assay: SEC; SEC-HPLC of recently released lots; Phenomenex Yarra 3 um SEC-2000, isocratic 55% 0.1% TFA / 45% acetonitrile, 1.000 mL/min, ambient temperature, UV 214 nm; reconstituted with the included diluent and tested immediately; monomer and dimer told by a calibration curve
[3] = target: ELI-glucagon (Eli Lilly's Glucagon, recombinant, reference listed drug) (UniProt P01275); assay: SEC; SEC-HPLC of expired lots (end of shelf life); Phenomenex Yarra 3 um SEC-2000, isocratic 55% 0.1% TFA / 45% acetonitrile, 1.000 mL/min, ambient temperature, UV 214 nm; reconstituted with the included diluent and tested immediately; monomer and dimer told by a calibration curve

% Dimer by SEC-HPLC [1] | stoichiometry N [1] | % Dimer by SEC-HPLC [2] | stoichiometry N [2] | % Dimer by SEC-HPLC [3] | stoichiometry N [3] | Substance
0.062% and 0.08% and 0.115% | 2 |  |  |  |  | AMP-glucagon (generic synthetic glucagon for injection, Amphastar Pharmaceuticals) (from UniProt P01275 53-81) (peptide)
 |  | 0.04% and 0.042% and 0.038% | 2 | 0.133% and 0.097% and 0.144% | 2 | ELI-glucagon (Eli Lilly's Glucagon, recombinant, reference listed drug) (from UniProt P01275 53-81) (peptide)
